Assay results: patent US20250346668A1

How the values were obtained:
[1] = target: Human CD3e/g protein (human) (UniProt P07766); experiment: ELISA, coated hCD3e/g
[2] = target: human CD3e/d protein (Sinobiological, CAT: CT038-H2508H-B) (human) (UniProt P07766); experiment: ELISA, coated hCD3e/d
[3] = target: Cynomolgus monkey CD3e/g protein (cynomolgus monkey); experiment: ELISA, coated cyno CD3e/g

Row | Substance | EC50 [1] | OD450 nm at 0.000853 nM [1] | OD450 nm at 0.0043 nM [1] | OD450 nm at 0.02 nM [1] | OD450 nm at 0.11 nM [1] | OD450 nm at 0.53 nM [1] | OD450 nm at 2.67 nM [1] | OD450 nm at 13.3 nM [1] | OD450 nm at 66.7 nM [1] | OD450 nm at 0.000853 nM [3] | OD450 nm at 0.0043 nM [3] | OD450 nm at 0.02 nM [3] | OD450 nm at 0.11 nM [3] | OD450 nm at 0.53 nM [3] | OD450 nm at 2.67 nM [3] | OD450 nm at 13.3 nM [3] | OD450 nm at 66.7 nM [3] | further results
1 | SP34 (antibody) | 0.64 nM | 0.18 OD450 nm | 0.1 OD450 nm | 0.15 OD450 nm | 0.38 OD450 nm | 1.45 OD450 nm | 3.1 OD450 nm | 3.29 OD450 nm | 3.23 OD450 nm | 0.12 OD450 nm | 0.2 OD450 nm | 0.19 OD450 nm | 0.5 OD450 nm | 1.83 OD450 nm | 3.41 OD450 nm | 3.57 OD450 nm | 3.55 OD450 nm | EC50 [2]: 1.51 nM; Emax (OD) [2]: 2.01 OD; OD450 nm at 0.00128 nM [2]: 0.05 OD450 nm; OD450 nm at 0.0064 nM [2]: 0.06 OD450 nm; OD450 nm at 0.032 nM [2]: 0.09 OD450 nm; OD450 nm at 0.16 nM [2]: 0.23 OD450 nm; OD450 nm at 0.8 nM [2]: 0.7 OD450 nm; OD450 nm at 4 nM [2]: 1.49 OD450 nm; OD450 nm at 20 nM [2]: 2.01 OD450 nm; OD450 nm at 100 nM [2]: 1.87 OD450 nm; EC50 [3]: 0.55 nM
2 | OKT3 (antibody) | 2.95 nM | 0.07 OD450 nm | 0.08 OD450 nm | 0.09 OD450 nm | 0.17 OD450 nm | 0.47 OD450 nm | 0.8 OD450 nm | 1.21 OD450 nm | 1.53 OD450 nm | 0.04 OD450 nm | 0.04 OD450 nm | 0.04 OD450 nm | 0.04 OD450 nm | 0.04 OD450 nm | 0.03 OD450 nm | 0.25 OD450 nm | 0.26 OD450 nm | 
3 | HIT3a (antibody) | 4.2 nM | 0.07 OD450 nm | 0.07 OD450 nm | 0.08 OD450 nm | 0.12 OD450 nm | 0.31 OD450 nm | 0.59 OD450 nm | 0.94 OD450 nm | 1.22 OD450 nm | 0.04 OD450 nm | 0.04 OD450 nm | 0.04 OD450 nm | 0.04 OD450 nm | 0.04 OD450 nm | 0.04 OD450 nm | 0.04 OD450 nm | 0.04 OD450 nm | 
4 | mouse IgG (antibody) |  | 0.177 OD450 nm | 0.101 OD450 nm | 0.08 OD450 nm | 0.09 OD450 nm | 0.14 OD450 nm | 0.07 OD450 nm | 0.1 OD450 nm | 0.15 OD450 nm | 0.0698 OD450 nm | 0.101 OD450 nm | 0.07 OD450 nm | 0.07 OD450 nm | 0.06 OD450 nm | 0.07 OD450 nm | 0.07 OD450 nm | 0.08 OD450 nm | 
